Among the data in paper PMC4643876, “Picomolar Inhibition of Plasmepsin V, an Essential Malaria Protease, Achieved Exploiting the Prime Region” (PLoS ONE, 2015) are IC50 of inhibition of PmV cleavage of the fluorogenic HRPII-PExEl substrate and in vitro inhibitory activity (IC50) against PmV cleavage of the fluorogenic HRPII-PExEl substrate values, retold here.

Where two headings read alike, the source gives them in different places. Ends that are not written are not given here. * marks the point of attachment. Biotin = O=C1N[C@H]2[C@H](CS[C@H]2CCCCC(=O)*)N1; Octanoyl = CCCCCCCC(=O)*; GABA = NCCCC(=O)O

Assay [1] concerns the target GFP-tagged Plasmepsin V (PmV-GFP), P. falciparum clone DC6 (Plasmodium falciparum).
Assay [2] shares this target. The source holds these as a separate data set.
The target is the same in assay [3]. This is another data set of the same source.

Sequence of GFP-tagged Plasmepsin V (PmV-GFP), P. falciparum clone DC6 (Plasmodium falciparum) (Q8I6Z5 whole entry): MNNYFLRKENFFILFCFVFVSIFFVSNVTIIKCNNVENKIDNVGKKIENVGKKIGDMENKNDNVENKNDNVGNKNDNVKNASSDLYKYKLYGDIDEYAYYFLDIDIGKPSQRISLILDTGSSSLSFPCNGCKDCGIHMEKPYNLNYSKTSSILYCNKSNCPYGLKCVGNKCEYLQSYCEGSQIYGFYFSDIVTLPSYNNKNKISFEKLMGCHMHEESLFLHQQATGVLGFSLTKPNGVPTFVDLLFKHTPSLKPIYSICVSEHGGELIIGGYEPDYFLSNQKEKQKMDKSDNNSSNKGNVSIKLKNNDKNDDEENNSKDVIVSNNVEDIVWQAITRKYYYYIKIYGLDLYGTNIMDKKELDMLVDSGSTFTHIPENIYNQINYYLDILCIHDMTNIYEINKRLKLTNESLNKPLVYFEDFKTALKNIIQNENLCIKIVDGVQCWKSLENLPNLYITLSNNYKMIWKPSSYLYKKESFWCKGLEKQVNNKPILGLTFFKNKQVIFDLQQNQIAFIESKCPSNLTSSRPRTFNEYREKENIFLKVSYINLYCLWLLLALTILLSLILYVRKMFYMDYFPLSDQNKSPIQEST

Regarding RLLYEA [Compound 37b (R epimer of Compound 37)], in assay [1], the IC50 of inhibition of PmV cleavage of the fluorogenic HRPII-PExEl substrate turned out to be 1.57 nM. Still for that read-out and setting: in the case of RLLAQA [Compound 8b (R epimer of Compound 8, glutamine in P2')] it was 188 nM. On to {Biotin-GABA-GABA}-RLLAEA (also: hydroxyethylamino (HEA) isostere replaces P1 Leu-P1' Ala peptide bond) [Compound 36, a biotinylated version of Compound 1], for which the in vitro inhibitory activity (IC50) against PmV cleavage of the fluorogenic HRPII-PExEl substrate in assay [2] came to 42 nM. On to Octanoyl-RLLYEA (not fully specified) [Compound 37a (octanoyl group at the N-terminus of Compound 7a)], for which, in assay [3], the IC50 of inhibition of PmV cleavage of the fluorogenic HRPII-PExEl substrate turned out to be 23 pM.
